Results from the supplement of paper PMC10126150.
± gives the standard deviation of the averaged measurements.
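Also: ATP exposure 15 min at 22 °C before imaging.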

What follows are sequences tested on ATP (assay: switch fluorescence ratio, 500 uM ATP over buffer (Cy3 cluster intensity, sum of 5 cycles each) (fold (ratio)); higher = stronger signal-on switching upon ATP binding; sequences stand for … in TCGTCGGCAGCGTCAGATGTGTATAAGAGACAGTTTTTTTTTTTTTTTTTTTTTTTTT…TC). Conditions: aptamer strand: ATP DNA aptamer (quencher-CACCTGGGGGAGTATTGCGGAGGAAGG + anchor), 100 nM annealed; ATP concentration: 500 uM.
Method in brief: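 Values give the fluorescence ratio for each switch-domain sequence, averaged from per-cluster ratios of summed target-cycle to summed buffer-cycle Cy3 intensity. The Cy3-labelled switching-strand clusters sat on a modified Illumina MiSeq flow-cell, were annealed to 100 nM quencher-labelled ATP aptamer, and were imaged in selection buffer, then after 15 min with 500 uM ATP at 22 °C. Five cycles ran with NaOH stripping and re-annealing between them, and clusters outside 100-1000 RFU were excluded.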
TCCGATTTAT was tested, and the switch fluorescence ratio was 0.989 ± 0.026.
TCCGCGGGGA showed a switch fluorescence ratio of 1.52 ± 0.59.
Work on TCCGCGGGTT yielded a switch fluorescence ratio of 1.14 ± 0.2.
Work on TCCGCTTGA yielded a switch fluorescence ratio of 1.58 ± 0.047.
For TCCGGCGTGC, the switch fluorescence ratio was 1.13 ± 0.23.
Sequence TCCGGGGCAG has a switch fluorescence ratio of 1.262 ± 0.0072.
TCCGGGGGGG was tested, and the switch fluorescence ratio was 1.06 ± 0.094.
TCCGGGGGTG showed a switch fluorescence ratio of 1.09 ± 0.13.
Work on TCCGGTGTTT yielded a switch fluorescence ratio of 1.081 ± 0.0036.
TCCGGTTGTC showed a switch fluorescence ratio of 1.11 ± 0.036.
TCCGTCACTA showed a switch fluorescence ratio of 1.438 ± 0.0074.
In the case of TCCTACTACG, the switch fluorescence ratio is reported as 1.08 ± 0.026.
Work on TCCTAGGCGT yielded a switch fluorescence ratio of 1.06 ± 0.12.
With TCCTAGGGGT the switch fluorescence ratio was 2.44 ± 1.2.
In the case of TCCTAGGTCT, the switch fluorescence ratio is reported as 1.009 ± 0.0029.
TCCTAGTTGA showed a switch fluorescence ratio of 1.024 ± 0.0012.
In the case of TCCTATACTA, the switch fluorescence ratio is reported as 1.035 ± 0.0094.
In the case of TCCTATTGTG, the switch fluorescence ratio is reported as 1.03 ± 0.042.
TCCTCGAGTA gave a switch fluorescence ratio of 1.27 ± 0.027.
TCCTGAGTTA showed a switch fluorescence ratio of 0.996 ± 0.011.
With TCCTGCAGGA the switch fluorescence ratio was 1.03 ± 0.014.
With TCCTGCCTTA the switch fluorescence ratio was 1.0991 ± 0.00051.
For TCCTGCGGGG, the switch fluorescence ratio was 1.12 ± 0.12.
In the case of TCCTGGAGGA, the switch fluorescence ratio is reported as 0.989 ± 0.05.
In the case of TCCTGGGCGG, the switch fluorescence ratio is reported as 1.077 ± 0.0028.
TCCTGGGGGG gave a switch fluorescence ratio of 1.04 ± 0.046.
Work on TCCTGGGTGT yielded a switch fluorescence ratio of 2.23 ± 0.12.
TCCTTATTGG showed a switch fluorescence ratio of 1 ± 0.0068.
Sequence TCCTTCAAAG has a switch fluorescence ratio of 1.08 ± 0.085.
TCCTTCGGCG was tested, and the switch fluorescence ratio was 1.3 ± 0.078.
TCCTTCTCTT was tested, and the switch fluorescence ratio was 1.05 ± 0.021.
Sequence TCCTTTAAGG has a switch fluorescence ratio of 1.025 ± 0.003.
TCCTTTAATC gave a switch fluorescence ratio of 1.98 ± 1.4.
Sequence TCCTTTACTG has a switch fluorescence ratio of 0.9779 ± 0.0072.
With TCCTTTAGCC the switch fluorescence ratio was 1.23 ± 0.015.
In the case of TCCTTTGGTC, the switch fluorescence ratio is reported as 0.987 ± 0.022.
Work on TCGAAAACAG yielded a switch fluorescence ratio of 0.961 ± 0.0078.
TCGAAAGTGT gave a switch fluorescence ratio of 1 ± 0.025.
TCGAAATTCG gave a switch fluorescence ratio of 1.02 ± 0.019.
TCGAACTGAT showed a switch fluorescence ratio of 1.02 ± 0.03.
For TCGAAGGATA, the switch fluorescence ratio was 0.992 ± 0.011.
TCGAAGGGGG showed a switch fluorescence ratio of 1.1 ± 0.16.
TCGAATGGCT showed a switch fluorescence ratio of 1 ± 0.044.
TCGAATGT gave a switch fluorescence ratio of 1.01 ± 0.012.
TCGAATGTGC showed a switch fluorescence ratio of 0.989 ± 0.022.
TCGACACTGA was tested, and the switch fluorescence ratio was 1.058 ± 0.0022.
In the case of TCGACCTAAT, the switch fluorescence ratio is reported as 1.077 ± 0.01.
TCGACGATTC gave a switch fluorescence ratio of 1.52 ± 0.14.
With TCGACTCAGG the switch fluorescence ratio was 1.05 ± 0.028.
In the case of TCGACTGAGG, the switch fluorescence ratio is reported as 1.03 ± 0.031.
Work on TCGACTGTTT yielded a switch fluorescence ratio of 1.03 ± 0.018.
For TCGAGAATGT, the switch fluorescence ratio was 0.984 ± 0.014.
Sequence TCGAGAGGGA has a switch fluorescence ratio of 1 ± 0.047.
In the case of TCGAGATAGA, the switch fluorescence ratio is reported as 1.1 ± 0.11.
In the case of TCGAGATTAG, the switch fluorescence ratio is reported as 0.9942 ± 0.0086.
In the case of TCGAGCATCA, the switch fluorescence ratio is reported as 1.143 ± 0.01.
TCGAGCTTGT was tested, and the switch fluorescence ratio was 1 ± 0.024.
For TCGAGGAATC, the switch fluorescence ratio was 1.075 ± 0.0094.
TCGAGGGCGG gave a switch fluorescence ratio of 0.98 ± 0.032.
For TCGAGGGGGC, the switch fluorescence ratio was 1.07 ± 0.17.
Sequence TCGAGTAGGG has a switch fluorescence ratio of 0.995 ± 0.016.
For TCGAGTATCT, the switch fluorescence ratio was 0.999 ± 0.019.
For TCGAGTATTC, the switch fluorescence ratio was 1.04 ± 0.013.
TCGAGTTGCA showed a switch fluorescence ratio of 1 ± 0.033.
In the case of TCGAGTTTGG, the switch fluorescence ratio is reported as 1.01 ± 0.022.
TCGATACGAT showed a switch fluorescence ratio of 0.994 ± 0.018.
For TCGATAGCTG, the switch fluorescence ratio was 0.935 ± 0.046.
For TCGATAGGGG, the switch fluorescence ratio was 0.98 ± 0.054.
TCGATATTGG showed a switch fluorescence ratio of 1.02 ± 0.022.
Work on TCGATCCCGA yielded a switch fluorescence ratio of 1.017 ± 0.0072.
TCGATCGGGT was tested, and the switch fluorescence ratio was 0.991 ± 0.035.
With TCGATGGCGC the switch fluorescence ratio was 1.02 ± 0.023.
For TCGATGGGGG, the switch fluorescence ratio was 0.942 ± 0.013.
With TCGATTCGGT the switch fluorescence ratio was 1.02 ± 0.026.
With TCGATTGTGG the switch fluorescence ratio was 1.02 ± 0.03.
TCGCAAAGGT showed a switch fluorescence ratio of 1.34 ± 0.036.
In the case of TCGCACGTAT, the switch fluorescence ratio is reported as 1.03 ± 0.043.
In the case of TCGCCAATTG, the switch fluorescence ratio is reported as 1.0649 ± 0.00052.
TCGCCTGGCG gave a switch fluorescence ratio of 0.972 ± 0.034.
Sequence TCGCGGCAAT has a switch fluorescence ratio of 3.06 ± 2.3.
TCGCGGGAAG showed a switch fluorescence ratio of 1.015 ± 0.0054.
Sequence TCGCTAATTG has a switch fluorescence ratio of 1.04 ± 0.022.
In the case of TCGCTACCGA, the switch fluorescence ratio is reported as 1.09 ± 0.04.
TCGCTAGATG was tested, and the switch fluorescence ratio was 1.4 ± 0.52.
In the case of TCGCTGTTGT, the switch fluorescence ratio is reported as 1.01 ± 0.0019.
For TCGCTTGGCC, the switch fluorescence ratio was 1.03 ± 0.04.
Sequence TCGGAAAGGG has a switch fluorescence ratio of 0.9961 ± 0.0049.
TCGGAAGATT showed a switch fluorescence ratio of 1.01 ± 0.034.
In the case of TCGGAAGGAC, the switch fluorescence ratio is reported as 1.141 ± 0.011.
Work on TCGGAAGGGC yielded a switch fluorescence ratio of 1.017 ± 0.0027.
For TCGGAAGTCA, the switch fluorescence ratio was 1.012 ± 0.0042.
TCGGAATTTT was tested, and the switch fluorescence ratio was 1.03 ± 0.026.
TCGGACAGGC showed a switch fluorescence ratio of 1.03 ± 0.035.
TCGGACGTAC showed a switch fluorescence ratio of 1.98 ± 0.16.
TCGGACTTTT gave a switch fluorescence ratio of 1.04 ± 0.012.
TCGGAGGGGC was tested, and the switch fluorescence ratio was 1.03 ± 0.013.
TCGGAGTCTG was tested, and the switch fluorescence ratio was 1.04 ± 0.056.
Work on TCGGATGTGG yielded a switch fluorescence ratio of 1.01 ± 0.056.
In the case of TCGGATTATG, the switch fluorescence ratio is reported as 0.9669 ± 0.0066.
With TCGGCAAGTT the switch fluorescence ratio was 1.2 ± 0.33.
